Measured values published in patent US20250171562A1.

What follows are binders tested against mixture of three Der p 2 specific recombinant human IgE clones H10, H12, P4E (human) (UniProt P01854) (assay: RBL-SX38 IgE displacement, FACS).
Sequence of mixture of three Der p 2 specific recombinant human IgE clones H10, H12, P4E (human) (P01854 other isoform, or with tags, fused parts or gaps): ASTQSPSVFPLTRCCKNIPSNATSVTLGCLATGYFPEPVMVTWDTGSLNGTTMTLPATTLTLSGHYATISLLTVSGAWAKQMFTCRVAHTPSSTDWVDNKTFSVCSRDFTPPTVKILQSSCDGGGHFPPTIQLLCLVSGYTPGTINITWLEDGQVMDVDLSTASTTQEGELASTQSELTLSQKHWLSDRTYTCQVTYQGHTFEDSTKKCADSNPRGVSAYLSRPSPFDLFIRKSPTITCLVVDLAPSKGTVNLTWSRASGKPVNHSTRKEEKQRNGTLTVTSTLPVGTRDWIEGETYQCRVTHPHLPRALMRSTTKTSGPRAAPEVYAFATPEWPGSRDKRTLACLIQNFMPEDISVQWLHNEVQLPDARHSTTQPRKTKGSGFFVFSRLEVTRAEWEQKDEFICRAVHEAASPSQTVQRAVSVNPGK

EC50 [nM] | Max effect/effect 1 µM [%] | Binder
331 | 74 | NIgG4F4A1(RS) (Fc fusion) chain 1: DVQLQESGGGLVQAGGSLRLSCAVSGLSFSSMGWFRQPPGKEREFVAAISLYSGSTYYADSVKGRFTISSDNAKSTVYLQMNSLKPEDAAVYFCAADRQRTWSTFYASRQATYNYWGQGTQVTVTSRSGPPCPPCPAPEFLGGPSVFLFPPKPKDTLMISRTPEVTCVVVDVSQEDPEVQFNWYVDGVEVHNAKTKPREEQFNSTYRVVSVLTVLHQDWLNGKEYKCKVSNKGLPSSIEKTISKAKGQPREPQVYTLPPCQEEMTKNQVSLWCLVKGFYPSDIAVEWESNGQPENNYKTTPPVLDSDGSFFLYSRLTVDKSRWQEGNVFSCSVMHEALHNHYTQKSLSLSLGK chain 2: EVQLLESGGGLVQPGGSLRLSCAASGFTFGNYDMAWVRQAPGKRPEWVSSIDTGGDITHYADSVKGRFTISRDNAKNTLYLQMNSLRPEDTAVYWCATDEEYALGPNEFDYYGQGTLVTVSSRSGPPCPPCPAPEFLGGPSVFLFPPKPKDTLMISRTPEVTCVVVDVSQEDPEVQFNWYVDGVEVHNAKTKPREEQFNSTYRVVSVLTVLHQDWLNGKEYKCKVSNKGLPSSIEKTISKAKGQPREPQVCTLPPSQEEMTKNQVSLSCAVKGFYPSDIAVEWESNGQPENNYKTTPPVLDSDGSFFLVSRLTVDKSRWQEGNVFSCSVMHEALHNHYTQKSLSLSLGK
 | 0 | CIgG4F3A1(G4S)2 (Fc fusion) chain 1: GPPCPPCPAPEFLGGPSVFLFPPKPKDTLMISRTPEVTCVVVDVSQEDPEVQFNWYVDGVEVHNAKTKPREEQFNSTYRVVSVLTVLHQDWLNGKEYKCKVSNKGLPSSIEKTISKAKGQPREPQVYTLPPCQEEMTKNQVSLWCLVKGFYPSDIAVEWESNGQPENNYKTTPPVLDSDGSFFLYSRLTVDKSRWQEGNVFSCSVMHEALHNHYTQKSLSLSLGKGGGGSGGGGSDVQLQESGGGLVQAGGSLKLSCAASRGSLSRWDVAWFRQAPGKERSFVTRISWSGTTSYYADAVKGRFAISRDNAKNTVYLQMNSLKPEDTAVYYCAVALYGNRGYYDVNAHSYWGQGTQVTVS chain 2: GPPCPPCPAPEFLGGPSVFLFPPKPKDTLMISRTPEVTCVVVDVSQEDPEVQFNWYVDGVEVHNAKTKPREEQFNSTYRVVSVLTVLHQDWLNGKEYKCKVSNKGLPSSIEKTISKAKGQPREPQVCTLPPSQEEMTKNQVSLSCAVKGFYPSDIAVEWESNGQPENNYKTTPPVLDSDGSFFLVSRLTVDKSRWQEGNVFSCSVMHEALHNHYTQKSLSLSLGKGGGGSGGGGSEVQLLESGGGLVQPGGSLRLSCAASGFTFGNYDMAWVRQAPGKRPEWVSSIDTGGDITHYADSVKGRFTISRDNAKNTLYLQMNSLRPEDTAVYWCATDEEYALGPNEFDYYGQGTLVTVSS
21.1 | 97 | NIgG4F4A1(G4S)2 (Fc fusion) chain 1: DVQLQESGGGLVQAGGSLRLSCAVSGLSFSSMGWFRQPPGKEREFVAAISLYSGSTYYADSVKGRFTISSDNAKSTVYLQMNSLKPEDAAVYFCAADRQRTWSTFYASRQATYNYWGQGTQVTVTSGGGGSGGGGSGPPCPPCPAPEFLGGPSVFLFPPKPKDTLMISRTPEVTCVVVDVSQEDPEVQFNWYVDGVEVHNAKTKPREEQFNSTYRVVSVLTVLHQDWLNGKEYKCKVSNKGLPSSIEKTISKAKGQPREPQVYTLPPCQEEMTKNQVSLWCLVKGFYPSDIAVEWESNGQPENNYKTTPPVLDSDGSFFLYSRLTVDKSRWQEGNVFSCSVMHEALHNHYTQKSLSLSLGK chain 2: EVQLLESGGGLVQPGGSLRLSCAASGFTFGNYDMAWVRQAPGKRPEWVSSIDTGGDITHYADSVKGRFTISRDNAKNTLYLQMNSLRPEDTAVYWCATDEEYALGPNEFDYYGQGTLVTVSSGGGGSGGGGSGPPCPPCPAPEFLGGPSVFLFPPKPKDTLMISRTPEVTCVVVDVSQEDPEVQFNWYVDGVEVHNAKTKPREEQFNSTYRVVSVLTVLHQDWLNGKEYKCKVSNKGLPSSIEKTISKAKGQPREPQVCTLPPSQEEMTKNQVSLSCAVKGFYPSDIAVEWESNGQPENNYKTTPPVLDSDGSFFLVSRLTVDKSRWQEGNVFSCSVMHEALHNHYTQKSLSLSLGK
 | 9 | CIgG4F3A1(RS) (Fc fusion) chain 1: GPPCPPCPAPEFLGGPSVFLFPPKPKDTLMISRTPEVTCVVVDVSQEDPEVQFNWYVDGVEVHNAKTKPREEQFNSTYRVVSVLTVLHQDWLNGKEYKCKVSNKGLPSSIEKTISKAKGQPREPQVYTLPPCQEEMTKNQVSLWCLVKGFYPSDIAVEWESNGQPENNYKTTPPVLDSDGSFFLYSRLTVDKSRWQEGNVFSCSVMHEALHNHYTQKSLSLSLGKRSDVQLQESGGGLVQAGGSLKLSCAASRGSLSRWDVAWFRQAPGKERSFVTRISWSGTTSYYADAVKGRFAISRDNAKNTVYLQMNSLKPEDTAVYYCAVALYGNRGYYDVNAHSYWGQGTQVTVS chain 2: GPPCPPCPAPEFLGGPSVFLFPPKPKDTLMISRTPEVTCVVVDVSQEDPEVQFNWYVDGVEVHNAKTKPREEQFNSTYRVVSVLTVLHQDWLNGKEYKCKVSNKGLPSSIEKTISKAKGQPREPQVCTLPPSQEEMTKNQVSLSCAVKGFYPSDIAVEWESNGQPENNYKTTPPVLDSDGSFFLVSRLTVDKSRWQEGNVFSCSVMHEALHNHYTQKSLSLSLGKRSEVQLLESGGGLVQPGGSLRLSCAASGFTFGNYDMAWVRQAPGKRPEWVSSIDTGGDITHYADSVKGRFTISRDNAKNTLYLQMNSLRPEDTAVYWCATDEEYALGPNEFDYYGQGTLVTVSS
 | 2 | CIgG4F3A1(G4S)3 (Fc fusion) chain 1: GPPCPPCPAPEFLGGPSVFLFPPKPKDTLMISRTPEVTCVVVDVSQEDPEVQFNWYVDGVEVHNAKTKPREEQFNSTYRVVSVLTVLHQDWLNGKEYKCKVSNKGLPSSIEKTISKAKGQPREPQVYTLPPCQEEMTKNQVSLWCLVKGFYPSDIAVEWESNGQPENNYKTTPPVLDSDGSFFLYSRLTVDKSRWQEGNVFSCSVMHEALHNHYTQKSLSLSLGKGGGGSGGGGSGGGGSDVQLQESGGGLVQAGGSLKLSCAASRGSLSRWDVAWFRQAPGKERSFVTRISWSGTTSYYADAVKGRFAISRDNAKNTVYLQMNSLKPEDTAVYYCAVALYGNRGYYDVNAHSYWGQGTQVTVS chain 2: GPPCPPCPAPEFLGGPSVFLFPPKPKDTLMISRTPEVTCVVVDVSQEDPEVQFNWYVDGVEVHNAKTKPREEQFNSTYRVVSVLTVLHQDWLNGKEYKCKVSNKGLPSSIEKTISKAKGQPREPQVCTLPPSQEEMTKNQVSLSCAVKGFYPSDIAVEWESNGQPENNYKTTPPVLDSDGSFFLVSRLTVDKSRWQEGNVFSCSVMHEALHNHYTQKSLSLSLGKGGGGSGGGGSGGGGSEVQLLESGGGLVQPGGSLRLSCAASGFTFGNYDMAWVRQAPGKRPEWVSSIDTGGDITHYADSVKGRFTISRDNAKNTLYLQMNSLRPEDTAVYWCATDEEYALGPNEFDYYGQGTLVTVSS
 | 35 | CIgG4F3A1(G4S)1 (Fc fusion) chain 1: GPPCPPCPAPEFLGGPSVFLFPPKPKDTLMISRTPEVTCVVVDVSQEDPEVQFNWYVDGVEVHNAKTKPREEQFNSTYRVVSVLTVLHQDWLNGKEYKCKVSNKGLPSSIEKTISKAKGQPREPQVYTLPPCQEEMTKNQVSLWCLVKGFYPSDIAVEWESNGQPENNYKTTPPVLDSDGSFFLYSRLTVDKSRWQEGNVFSCSVMHEALHNHYTQKSLSLSLGKGGGGSDVQLQESGGGLVQAGGSLKLSCAASRGSLSRWDVAWFRQAPGKERSFVTRISWSGTTSYYADAVKGRFAISRDNAKNTVYLQMNSLKPEDTAVYYCAVALYGNRGYYDVNAHSYWGQGTQVTVS chain 2: GPPCPPCPAPEFLGGPSVFLFPPKPKDTLMISRTPEVTCVVVDVSQEDPEVQFNWYVDGVEVHNAKTKPREEQFNSTYRVVSVLTVLHQDWLNGKEYKCKVSNKGLPSSIEKTISKAKGQPREPQVCTLPPSQEEMTKNQVSLSCAVKGFYPSDIAVEWESNGQPENNYKTTPPVLDSDGSFFLVSRLTVDKSRWQEGNVFSCSVMHEALHNHYTQKSLSLSLGKGGGGSEVQLLESGGGLVQPGGSLRLSCAASGFTFGNYDMAWVRQAPGKRPEWVSSIDTGGDITHYADSVKGRFTISRDNAKNTLYLQMNSLRPEDTAVYWCATDEEYALGPNEFDYYGQGTLVTVSS
0.9 | 94 | NIgG4F3A1(G4S)3 (Fc fusion) chain 1: DVQLQESGGGLVQAGGSLKLSCAASRGSLSRWDVAWFRQAPGKERSFVTRISWSGTTSYYADAVKGRFAISRDNAKNTVYLQMNSLKPEDTAVYYCAVALYGNRGYYDVNAHSYWGQGTQVTVSGGGGSGGGGSGGGGSGPPCPPCPAPEFLGGPSVFLFPPKPKDTLMISRTPEVTCVVVDVSQEDPEVQFNWYVDGVEVHNAKTKPREEQFNSTYRVVSVLTVLHQDWLNGKEYKCKVSNKGLPSSIEKTISKAKGQPREPQVYTLPPCQEEMTKNQVSLWCLVKGFYPSDIAVEWESNGQPENNYKTTPPVLDSDGSFFLYSRLTVDKSRWQEGNVFSCSVMHEALHNHYTQKSLSLSLGK chain 2: EVQLLESGGGLVQPGGSLRLSCAASGFTFGNYDMAWVRQAPGKRPEWVSSIDTGGDITHYADSVKGRFTISRDNAKNTLYLQMNSLRPEDTAVYWCATDEEYALGPNEFDYYGQGTLVTVSSGGGGSGGGGSGGGGSGPPCPPCPAPEFLGGPSVFLFPPKPKDTLMISRTPEVTCVVVDVSQEDPEVQFNWYVDGVEVHNAKTKPREEQFNSTYRVVSVLTVLHQDWLNGKEYKCKVSNKGLPSSIEKTISKAKGQPREPQVCTLPPSQEEMTKNQVSLSCAVKGFYPSDIAVEWESNGQPENNYKTTPPVLDSDGSFFLVSRLTVDKSRWQEGNVFSCSVMHEALHNHYTQKSLSLSLGK
21.6 | 100 | NIgG4F4A1(G4S)1 (Fc fusion) chain 1: DVQLQESGGGLVQAGGSLRLSCAVSGLSFSSMGWFRQPPGKEREFVAAISLYSGSTYYADSVKGRFTISSDNAKSTVYLQMNSLKPEDAAVYFCAADRQRTWSTFYASRQATYNYWGQGTQVTVTSGGGGSGPPCPPCPAPEFLGGPSVFLFPPKPKDTLMISRTPEVTCVVVDVSQEDPEVQFNWYVDGVEVHNAKTKPREEQFNSTYRVVSVLTVLHQDWLNGKEYKCKVSNKGLPSSIEKTISKAKGQPREPQVYTLPPCQEEMTKNQVSLWCLVKGFYPSDIAVEWESNGQPENNYKTTPPVLDSDGSFFLYSRLTVDKSRWQEGNVFSCSVMHEALHNHYTQKSLSLSLGK chain 2: EVQLLESGGGLVQPGGSLRLSCAASGFTFGNYDMAWVRQAPGKRPEWVSSIDTGGDITHYADSVKGRFTISRDNAKNTLYLQMNSLRPEDTAVYWCATDEEYALGPNEFDYYGQGTLVTVSSGGGGSGPPCPPCPAPEFLGGPSVFLFPPKPKDTLMISRTPEVTCVVVDVSQEDPEVQFNWYVDGVEVHNAKTKPREEQFNSTYRVVSVLTVLHQDWLNGKEYKCKVSNKGLPSSIEKTISKAKGQPREPQVCTLPPSQEEMTKNQVSLSCAVKGFYPSDIAVEWESNGQPENNYKTTPPVLDSDGSFFLVSRLTVDKSRWQEGNVFSCSVMHEALHNHYTQKSLSLSLGK
